These results are taken from US7744887B2, “Human antibodies interacting with HIV gp41” (priority 2004, dated 2010).

Experiment [1] relates to HIV-1 (envelope from strain HXB2). Description: HIV Reporter Particle (HIVRP) assay. Format: cell-based. To be noted: envelope from strain HXB2, purified scFvs.
Experiment [2] concerns CXCR4-tropic HIV-1 strain HXB2. Format: cell-based. As to conditions: for effect on HIV-HXB2 replication: single cycle infectivity assay, FIG. 9.
Experiment [3] relates to HIV particles pseudotyped with the surface protein of the Vesicular Stomatitis Virus (VSV-G). Format: cell-based.
The subject of a further experiment is CCR5-tropic strain BaL. Format: cell-based, HIV-1.
The target in the next experiment is IZN17-Q567R. Description: Surface plasmon resonance (Biacore), IZN17-Q567R. Format: binding, HIV-1. As to conditions: peptide IZN17-Q567R. The source says: (§1) Affinity of D5 IgG for the hydrophobic pocket of HR1—The affinity of D5 IgG for various peptides was next determined by surface plasmon resonance (Biacore).
On the technique in general: In SPR one partner is held on a chip, and binding of the other changes the refractive index at the surface.

A further experiment has as its target IZN17-G572D. Put plainly: Surface plasmon resonance (Biacore), IZN17-G572D. Format: binding, HIV-1. To be noted: peptide IZN17-G572D.
Text: as §1

Another experiment deals with IZN17. Put plainly: Surface plasmon resonance (Biacore), IZN17. Format: binding, HIV-1. To be noted: peptide IZN17.
Text: as §1

Experiment [4] has as its target T1, 5-Helix (Human immunodeficiency virus type 1 group M subtype B, UniProt P04578, C598G/DEL583-596/DEL601-623/N624G). As to conditions: Biacore, peptide 5-Helix.
Text: as §1

Experiment [5] deals with dual tropic strain (CCR5 and CXCR4) HIV 89.6. Format: cell-based, HIV-1.
Another experiment deals with IQN17. Description: ALPHASCREEN D5 IgG/IQN17 binding assay. On the set-up: species or system HIV-1. For orientation: Alpha assays give light when donor and acceptor beads are brought close together.
Experiment [6] deals with interaction of biotinylated IZN36 with C34-HA (Human immunodeficiency virus type 1 group M subtype B, UniProt P04578). As to conditions: ALPHASCREEN, FIG. 15.
The next experiment concerns the target IZN17-L565M. Description: Surface plasmon resonance (Biacore), IZN17-L565M. Format: binding, HIV-1. As to conditions: peptide IZN17-L565M.
Text: as §1

A further experiment has as its target IZN36 (Human immunodeficiency virus type 1 group M subtype B, UniProt P04578). As to conditions: ALPHASCREEN, FIG. 10.
A further experiment has as its target IQN17-2Pro. Put plainly: Surface plasmon resonance (Biacore), IQN17-2Pro. Format: binding, HIV-1. To be noted: peptide IQN17-2Pro.
Text: as §1

For experiment [7], the target named is T1, 5-Helix. To be noted: ALPHASCREEN, FIG. 10.
A further experiment has as its system HIV strain MN-1. Format: cell-based, HIV-1. To be noted: MN-1, single cycle infectivity assay.

B1: B11 scFv: human scFv from phage display, SEQ ID NO:8, VH and VL joined by (G4S)3 linker; binds gp41 HR1 (protein)
scFv: QVQLVQSGAEVKKPGSSVKVSCKASGGTFSSYAISWVRQAPGQGLEWMGGIIPLFDTSNYAQNFQGRITITADKSTSTAYMELSSLRFEDTAIYYCARDNPLLLAMDVWGKGTTVTVSSGGGGSGGGGSGGGGSDIQMTQSPSTLSASIGDRVTITCRASEGIYHWLAWYQQKPGKAPKLLIYKASSLASGAPSRFSGSGSGTDFTLTISSLQPDDFATYYCQQYSNYPLTFGGGTKLEIK
modifications: Homo sapien
In the case of B1, the “ability to prevent HIV-1 entry” value in experiment [1] is listed as “capable of inhibiting HIV-1 entry”. The “effect on HIV-HXB2 replication” value in experiment [2] is given as “displayed anti-viral properties against the HIV—HXB2 strain”.

B2: D5 scFv: human scFv from phage display, SEQ ID NO:2, VH and VL joined by (G4S)3 linker; binds gp41 HR1 hydrophobic pocket (protein)
scFv: QVQLVQSGAEVRKPGASVKVSCKASGDTFSSYAISWVRQAPGQGLEWMGGIIPIFGTANYAQKFQGRVTITADESTSTAYMELSSLRSEDTAIYYCARDNPTLLGSDYWGKGTLVTVSSGGGGSGGGGSGGGGSDIQMTQSPSTLSASIGDRVTITCRASEGIYHWLAWYQQKPGKAPKLLIYKASSLASGAPSRFSGSGSGTDFTLTISSLQPDDFATYYCQQYSNYPLTFGGGTKLEIK
modifications: Homo sapien
With B2, the “ability to prevent HIV-1 entry” value in [1] is “capable of inhibiting HIV-1 entry”. For the same molecule, the “prevention of infection by VSV-G pseudotyped particles” value in [3] is “Neither D5 nor X5 scFvs prevented infection”. The “effect on HIV-BaL replication” value in the experiment on CCR5-tropic strain BaL (single cycle infectivity assay) was “inhibited replication of HIV-BaL”. For the same molecule, the “effect on HIV-HXB2 replication” value in experiment [2] is “inhibited HIV—HXB2 replication”.

B3: D5 IgG: full length human IgG4/kappa carrying D5 VH (SEQ ID NO:4) and VL (SEQ ID NO:6) (antibody, V domains shown)
VH: QVQLVQSGAEVRKPGASVKVSCKASGDTFSSYAISWVRQAPGQGLEWMGGIIPIFGTANYAQKFQGRVTITADESTSTAYMELSSLRSEDTAIYYCARDNPTLLGSDYWGKGTLVTVSS
VL: DIQMTQSPSTLSASIGDRVTITCRASEGIYHWLAWYQQKPGKAPKLLIYKASSLASGAPSRFSGSGSGTDFTLTISSLQPDDFATYYCQQYSNYPLTFGGGTKLEIK
modifications: human IgG4/kappa constant regions; Homo sapien
Turning to B3, the IC50 result in experiment [3] is on record as “Not active”. Moreover, the Kd on IZN17-Q567R was found to be 1.5 nM; on IZN17-G572D, 550 nM; on IZN17, 0.1 nM; on IZN17-L565M, 0.3 nM; on IQN17-2Pro, 240 nM. Further, the Off with IZN17-Q567R is 1.2e−3 1/S; with IZN17-G572D, 3.0e−3 1/S; in the experiment with IZN17 it was 5.9e−4 1/S; in the experiment with 5-Helix [4] it was 1.0e−4 1/S; in the experiment on IZN17-L565M it was 8.9e−4 1/S; in the experiment on IQN17-2Pro, 2.2e−3 1/S. For the same molecule, the On with IZN17-Q567R turned out to be 800000 M⁻¹ s⁻¹; with IZN17-G572D, 5500 M⁻¹ s⁻¹; in the experiment on IZN17, 6.1e+06 M⁻¹ s⁻¹; with 5-Helix [4] it was 390000 M⁻¹ s⁻¹; with IZN17-L565M, 3e+06 M⁻¹ s⁻¹; in the experiment with IQN17-2Pro, 9000 M⁻¹ s⁻¹. Also, the “fold less susceptible to neutralization than HXB2” value in experiment [5] (89.6 versus HXB2) is “approximately 6 fold”. Moreover, the “interaction with biotinylated IQN17” value in the experiment on IQN17 was “evident interaction”. In addition, the “fold more sensitive than HXB2” value in the experiment with CCR5-tropic strain BaL (BaL versus HXB2) is given as “approximately 3 fold”. In addition, the “effect on the interaction of C34-HA with IZN36” value in experiment [6] is given as “prevented the interaction of C34-HA with IZN36”. For the same molecule, the “interaction with biotinylated IZN36” value with IZN36 is listed as “clear interaction”. Also, the “interaction with biotinylated 5-Helix” value in the experiment with 5-Helix [7] is recorded as “clear interaction”.

B4: B11 IgG: full length human IgG1/kappa carrying B11 VH (SEQ ID NO:10) and VL (SEQ ID NO:12) (antibody, V domains shown)
VH: QVQLVQSGAEVKKPGSSVKVSCKASGGTFSSYAISWVRQAPGQGLEWMGGIIPLFDTSNYAQNFQGRITITADKSTSTAYMELSSLRFEDTAIYYCARDNPLLLAMDVWGKGTTVTVSS
VL: B3 VL
modifications: human IgG1/kappa constant regions; Homo sapien
Consider B4, for which the IC50 worked out at 943 nM in [5] (HIV 89.6, single cycle infectivity assay); 73 nM in the experiment on CCR5-tropic strain BaL (HIV-BaL, single cycle infectivity assay); 290 nM in experiment [2] (HIV-HXB2, single cycle infectivity assay); 244 nM in the experiment with HIV strain MN-1.

The IC50 is the concentration needed to halve the response being measured. A high value points to weaker potency. By Kd is commonly meant the equilibrium constant for the complex coming apart.
